From US9382305B2, “Relaxin fusion polypeptides and uses thereof” (BAYER INTELLECTUAL PROPERTY GMBH, priority 2011, dated 2016)
Where two headings read alike, the source gives them in different places. Ends that are not written are not given here.

T1: human LGR7/RXFP1 receptor (Homo sapiens, UniProt Q9HBX9)
T1 construct: cloned as 2271 base pair long DNA fragment; expressed in transfected cells; host or cells: CHO K1 (ATCC CCL-61) with CRE-luciferase reporter; receptor in pcDNA3.1(-)
T1 sequence (Q9HBX9 1-757): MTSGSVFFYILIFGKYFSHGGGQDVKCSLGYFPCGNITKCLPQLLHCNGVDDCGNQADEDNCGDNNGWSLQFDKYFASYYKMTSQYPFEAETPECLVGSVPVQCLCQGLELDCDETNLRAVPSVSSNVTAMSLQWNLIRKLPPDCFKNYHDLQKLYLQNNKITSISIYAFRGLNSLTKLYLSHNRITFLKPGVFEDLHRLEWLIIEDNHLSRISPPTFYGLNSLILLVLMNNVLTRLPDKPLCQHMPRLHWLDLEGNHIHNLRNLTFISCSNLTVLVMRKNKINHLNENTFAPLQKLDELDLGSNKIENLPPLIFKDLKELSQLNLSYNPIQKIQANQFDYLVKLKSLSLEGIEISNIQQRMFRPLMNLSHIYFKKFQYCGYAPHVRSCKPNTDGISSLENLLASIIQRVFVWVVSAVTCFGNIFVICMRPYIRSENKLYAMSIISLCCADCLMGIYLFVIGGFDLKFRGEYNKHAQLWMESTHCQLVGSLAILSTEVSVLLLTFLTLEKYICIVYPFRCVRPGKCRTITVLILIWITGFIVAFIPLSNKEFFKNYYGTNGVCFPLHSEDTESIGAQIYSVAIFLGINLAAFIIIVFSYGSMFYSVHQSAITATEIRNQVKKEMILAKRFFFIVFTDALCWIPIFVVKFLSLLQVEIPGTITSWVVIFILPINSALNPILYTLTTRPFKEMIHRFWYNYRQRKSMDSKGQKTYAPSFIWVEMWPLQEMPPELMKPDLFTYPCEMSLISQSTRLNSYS

B1: scR2: single chain human Relaxin 2 A-L-B, linker GlyGlyGlySerGly; Myc, hemagglutinin and 6 Histidine tags; SEQ ID NO: 2 (protein)
chain: EQKLISEEDLQLYSALANKCCHVGCTKRSLARFCGGGSGSWMEEVIKLCGRELVRAQIAICGMSTWSYPYDVPDYAHHHHHH
B2: scR19: A chain of human Relaxin 2-linker SEQ ID NO: 139-B chain of human Relaxin 3; Myc tag; SEQ ID NO: 155 (protein)
chain: EQKLISEEDLQLYSALANKCCHVGCTKRSLARFCGGGSGGGSGRAAPYGVRLCGREFIRAVIFTCGGSRW
modifications: ends and bridges not checked
B3: scR6: single chain human Relaxin 2 A-L-B, fifteen amino acid linker SEQ ID NO: 173; Myc, hemagglutinin, 6 Histidine tags; SEQ ID NO: 6 (protein)
chain: EQKLISEEDLQLYSALANKCCHVGCTKRSLARFCGGGSGGGSGGGSGGGSWMEEVIKLCGRELVRAQIAICGMSTWSYPYDVPDYAHHHHHH
B4: scR13: single chain human Relaxin 2 A-L-B, linker LysArgSerLeuSerArgLysLysArg; non-purified; SEQ ID NO: 13 (protein)
chain: QLYSALANKCCHVGCTKRSLARFCKRSLSRKKRSWMEEVIKLCGRELVRAQIAICGMSTWS
modifications: ends and bridges not checked
B5: scR16: human Relaxin 2 B chain-linker GlyGlyGlySerGlyGlyGlySerGly-A chain; Myc tag; SEQ ID NO: 152 (protein)
chain: EQKLISEEDLSWMEEVIKLCGRELVRAQIAICGMSTWSGGGSGGGSGQLYSALANKCCHVGCTKRSLARFC
B6: scR-Fc 18: C terminal end of scR4 linked via 21 amino acid linker SEQ ID NO: 174 to human IgG1 Fc; SEQ ID NO: 33 (protein)
chain: QLYSALANKCCHVGCTKRSLARFCGGGSGGGSGSWMEEVIKLCGRELVRAQIAICGMSTWSGGGSGGGSGTLVTVSSESKYGPPCPPCPAPEAAAPELLGGPSVFLFPPKPKDTLMISRTPEVTCVVVDVSHEDPEVKFNWYVDGVEVHNAKTKPREEQYNSTYRVVSVLTVLHQDWLNGKEYKCKVSNKALPAPIEKTISKAKGQPREPQVYTLPPSRDELTKNQVSLTCLVKGFYPSDIAVEWESNGQPENNYKTTPPVLDSDGSFFLYSKLTVDKSRWQQGNVFSCSVMHEALHNHYTQKSLSLSPGK
modifications: relaxin fusion polypeptide
B7: scR1: single chain human Relaxin 2 A-L-B, linker GlyGlyGly; Myc, hemagglutinin and 6 Histidine tags; SEQ ID NO: 1 (protein)
chain: EQKLISEEDLQLYSALANKCCHVGCTKRSLARFCGGGSWMEEVIKLCGRELVRAQIAICGMSTWSYPYDVPDYAHHHHHH
B8: scR15: single chain human Relaxin 3 A-L-B, linker GlyGlyGlySerGlyGlyGlySerGly; Myc tag; SEQ ID NO: 15 (protein)
chain: EQKLISEEDLDVLAGLSSSCCKWGCSKSEISSLCGGGSGGGSGRAAPYGVRLCGREFIRAVIFTCGGSRW
modifications: ends and bridges not checked
B9: scR17: A chain of human Relaxin 3-linker SEQ ID NO: 139-B chain of human Relaxin 2; Myc tag; SEQ ID NO: 153 (protein)
chain: EQKLISEEDLDVLAGLSSSCCKWGCSKSEISSLCGGGSGGGSGSWMEEVIKLCGRELVRAQIAICGMSTWS
modifications: relaxin fusion polypeptide
B10: scR20: B chain of human Relaxin 3-linker SEQ ID NO: 139-A chain of human Relaxin 2; Myc tag; SEQ ID NO: 156 (protein)
chain: EQKLISEEDLRAAPYGVRLCGREFIRAVIFTCGGSRWGGGSGGGSGQLYSALANKCCHVGCTKRSLARFC
modifications: ends and bridges not checked
B11: scR18: B chain of human Relaxin 2-linker SEQ ID NO: 139-A chain of human Relaxin 3; Myc tag; SEQ ID NO: 154 (protein)
chain: EQKLISEEDLSWMEEVIKLCGRELVRAQIAICGMSTWSGGGSGGGSGDVLAGLSSSCCKWGCSKSEISSLC
modifications: relaxin fusion polypeptide

Target: T1, human LGR7/RXFP1 receptor
Experiment: Activity testing: CRE-luciferase reporter in CHO-CRE-LGR7 cell line
Format: cell-based
Settings: for EC50 (M): luciferase after 6 hours, examples of three to five independent experiments
Protocol: For stimulation, medium was exchanged by OptiMem (Gibco, #11058)+1% FCS containing different concentrations of the recombinantly expressed Relaxin variant proteins (usually starting at a concentration of 100 nM, followed by 1:2 dilutions). As positive control, commercially available recombinant expressed human Relaxin 2 (Genbank Accession number NP_604390.1) was used (R&D Systems, catalogue number 6586-RN-025). Subsequently, cells were incubated for 6 hours in a humified incubator at 5% carbon dioxide at 37° C. After 6 hours cells were tested for Luciferase activity using a Luciferase Assay System (Promega, # E1500) and using the Tecan Infinite 500 reader, luminescence mode, 1000 milliseconds integration time, measurement time 30 seconds.

[1] = Table 2, scR fusion protein constructs

Row | Molecule | biological activity (activation of LGR7), in words | EC50 (M) (Table 1, scR constructs) | also measured
1 | scR-Var7: single chain human Relaxin 2, linker LysArgSerLeuSerArgLysLysArg; B chain C terminus linked via IleGluGlyArgMetAsp to human IgG1 Fc; SEQ ID NO: 40 |  |  | EC50 (M) [1]: active (EC50 n.d.)
2 | Relaxin Fc: human Relaxin 2 (B chain-C chain-A chain) fused via IleGluGlyArgMetAsp to N terminal end of human IgG1 Fc | no activity |  | EC50 (M) [1]: not detectable; biological activity (activation of LGR7), in words (listed as human wildtype Relaxin 2 molecule with its orientation B chain-C chain-A chain f): does not show any detectable activity
3 | scR-Var8: human IgG1 Fc linked via IleGluGlyArgMetAsp to A chain N terminus; A-B linker LysArgSerLeuSerArgLysLysArg; SEQ ID NO: 41 |  |  | EC50 (M) [1]: active (EC50 n.d.)
4 | scR14: single chain human Relaxin 3 A-L-B, linker GlyGlyGlySerGlyGlyGlySerGly; non-purified; SEQ ID NO: 14 (DVLAGLSSSCCKWGCSKSEISSLCGGGSGGGSGRAAPYGVRLCGREFIRAVIFTCGGSRW; ends and bridges not checked; cysteine pairing not given here) | detectable biological activity |  | 
5 | B1 |  | not detectable | 
6 | B2 | further reduction in the activity | active (EC50 n.d.) | 
7 | B3 |  | not detectable | 
8 | B4 | lower activity | active (EC50 n.d.) | 
9 | B5 |  | not detectable | 
10 | B6 |  |  | EC50 (M) [1]: active (EC50 n.d.)
11 | B7 |  | not detectable | 
12 | B8 | detectable biological activity |  | 
13 | B9 | reduced activity |  | 
14 | B10 |  | not detectable | 
15 | B11 |  | not detectable | 
